Measurements from PMC6678494, “Characterization of the First Bacterial and Thermostable GDP-Mannose 3,5-Epimerase” (International Journal of Molecular Sciences, 2019).
Values belong to the molecule of their own block, whether it stands above or below them.

Assays:
MfGM35E = biological target: T1, MfGM35E (Candidatus Methylacidiphilum fumarolicum, UniProt A0ABM9IGG7); experiment: specific activity with added NAD+, HPAEC-PAD; type: biochemical; details: 2 mM GDP-Man, 100 mM MOPS pH 7.5, 50 °C; independent of added NAD+ concentration
T1 construct: gene MFUM_2356; codon-optimized gene in pET21 (NdeI/XhoI), C-terminal His6-tag kept, E. coli BL21(DE3), Ni-NTA, about 37 kDa

[1] = substrate: Nc1nc2c(ncn2[C@@H]2O[C@H](COP(=O)(O)OP(=O)(O)O[C@H]3O[C@H](CO)[C@@H](O)[C@H](O)[C@@H]3O)[C@@H](O)[C@H]2O)c(=O)[nH]1; experiment: initial rate of GDP-L-galactose formation, HPAEC-PAD, Michaelis-Menten fit; type: biochemical, Candidatus Methylacidiphilum fumarolicum; details: 100 mM MOPS pH 7, 60 °C, 20-2000 µM substrate

- % increase in activity (MfGM35E): 65%
Molecule: NC(=O)c1ccc[n+]([C@@H]2O[C@H](COP(=O)(O)OP(=O)(O)OC[C@H]3O[C@@H](n4cnc5c(N)ncnc54)[C@H](O)[C@@H]3O)[C@@H](O)[C@H]2O)c1 [NAD^+]

B1: MfGM35E (Candidatus Methylacidiphilum fumarolicum) (protein)
chain: MKKALVAGAGGFIGHHLVNFLKEKGYWVRGVDIKEPEYEKSRSDEFYLLDLRYWGNCLEATKGVDEVYQLAADMGGIGYISGNHAEIAKNNILINTHMLEASYQNGVKRYFYSSSACIYPSYRQQSVDVIPLKEEDAMPADPEEGYGWEKLFAEKLCQYYQEDKGIETRIARFHNVYGPLGTYKGGREKAPAAICRKIALAEDSSEIEVWGDGKQTRSFLYIQDCVEGIYLITQSDYPKPLNLGSEELVTIDQLVEMTAKVANKNIRIRHNLSKPQGVRGRNSDNSKLYKITGWRPKFPLLEGLKLTYPWIAERVARERNMQGCQ
notes: codon-optimized gene in pET21 (NdeI/XhoI), C-terminal His6-tag kept, E. coli BL21(DE3), Ni-NTA, about 37 kDa
- Km [1]: 98 µM
- kcat [1]: 0.2 s⁻¹
